# Numbering of substitutions follows the chain as printed. Numbered stars: 1 amine (or outer) side, 2 acyl side, 3 side chain; on linkers, the order of the positions; unused ones are H or OH. Square brackets hold non-standard residues; d marks the D form. Side chains are listed from the residue outwards. Ends that are not written are not given here. * marks the point of attachment. β2His = Beta2-His (beta2-homo amino acid form of His; γGlu = O=C(O)[C@H](CCC(=O)[*:2])N[*:1]; Desaminohistidyl = O=C(CCc1c[nH]cn1)*; Desaminotyrosyl = O=C(CCc1ccc(O)cc1)*; Palmitoyl = CCCCCCCCCCCCCCCC(=O)*; dthioAla = not defined here; thioAla = not defined here; Orn = NCCC[C@H](N)C(=O)O; Aib = CC(C)(N)C(=O)O; Sar = CNCC(=O)O
# B1: peptide of SEQ ID NO: 145 (peptide)
# peptide: XAEGTFTSDKSKYLDERAAQDFVQWLLEGGPSSGAPPPS
# modifications: position 1 Des-NH2-Tyr (desamino L-Tyr); position 2 Ala; C-terminal amide; other non-coded or acylated residues as in the sequence listing
# B2: peptide of SEQ ID NO: 155 (peptide)
# peptide: Ac-YAQGTFTSDK([γGlu-Palmitoyl])SKYLDERAAQDFVQWLLEGGPSSGAPPPS-NH2
# B3: peptide of SEQ ID NO: 158 (peptide)
# peptide: Ac-YA[dQ]GTFTSDK([γGlu-Palmitoyl])SKYLDERAAQDFVQWLLEGGPSSGAPPPS-NH2
# B4: peptide of SEQ ID NO: 15 (peptide)
# peptide: [dY]AQGTFTSDK([γGlu-Palmitoyl])SKYLDERAAQDFVQWLLEGGPSSGAPPPS-NH2
# B5: peptide of SEQ ID NO: 26 (peptide)
# peptide: B1 peptide with E3Q
# modifications: position 1 His; position 2 β-Ala; C-terminal amide; other non-coded or acylated residues as in the sequence listing
# B6: peptide of SEQ ID NO: 11 (peptide)
# peptide: [Desaminotyrosyl]AQGTFTSDK([γGlu-Palmitoyl])SKYLDERAAQDFVQWLLEGGPSSGAPPPS-NH2
# B7: peptide of SEQ ID NO: 30 (peptide)
# peptide: Ac-[Orn]AQGTFTSDK([γGlu-Palmitoyl])SKYLDERAAQDFVQWLLEGGPSSGAPPPS-NH2
# B8: peptide of SEQ ID NO: 23 (peptide)
# peptide: [dH]GQGTFTSDK([γGlu-Palmitoyl])SKYLDERAAQDFVQWLLEGGPSSGAPPPS-NH2
# B9: peptide of SEQ ID NO: 28 (peptide)
# peptide: H[Sar]QGTFTSDK([γGlu-Palmitoyl])SKYLDERAAQDFVQWLLEGGPSSGAPPPS-NH2
# B10: peptide of SEQ ID NO: 37 (peptide)
# peptide: H[Aib]QGTFTSDK([γGlu-Palmitoyl])SKYLDERAAQDFVQWLLEGGPSSGAPPPS-NH2
# B11: peptide of SEQ ID NO: 31 (peptide)
# peptide: [Desaminohistidyl]GQGTFTSDK([γGlu-Palmitoyl])SKYLDERAAQDFVQWLLEGGPSSGAPPPS-NH2
# B12: peptide of SEQ ID NO: 12 (peptide)
# peptide: Ac-[dY]AQGTFTSDK([γGlu-Palmitoyl])SKYLDERAAQDFVQWLLEGGPSSGAPPPS-NH2
# B13: peptide of SEQ ID NO: 14 (peptide)
# peptide: Ac-[dY]GQGTFTSDK([γGlu-Palmitoyl])SKYLDERAAQDFVQWLLEGGPSSGAPPPS-NH2
# B14: peptide of SEQ ID NO: 22 (peptide)
# peptide: [Desaminohistidyl]AQGTFTSDK([γGlu-Palmitoyl])SKYLDERAAQDFVQWLLEGGPSSGAPPPS-NH2
# B15: peptide of SEQ ID NO: 17 (peptide)
# peptide: Ac-[dthioAla]AQGTFTSDK([γGlu-Palmitoyl])SKYLDERAAQDFVQWLLEGGPSSGAPPPS-NH2
# modifications: reading uncertain
# B16: peptide of SEQ ID NO: 33 (peptide)
# peptide: [thioAla]PQGTFTSDK([γGlu-Palmitoyl])SKYLDERAAQDFVQWLLEGGPSSGAPPPS-NH2
# modifications: reading uncertain
# B17: peptide of SEQ ID NO: 29 (peptide)
# peptide: [thioAla]GQGTFTSDK([γGlu-Palmitoyl])SKYLDERAAQDFVQWLLEGGPSSGAPPPS-NH2
# modifications: reading uncertain
# B18: peptide of SEQ ID NO: 21 (peptide)
# peptide: Ac-[thioAla]AQGTFTSDK([γGlu-Palmitoyl])SKYLDERAAQDFVQWLLEGGPSSGAPPPS-NH2
# modifications: reading uncertain
# B19: peptide of SEQ ID NO: 16 (peptide)
# peptide: [dH]AQGTFTSDK([γGlu-Palmitoyl])SKYLDERAAQDFVQWLLEGGPSSGAPPPS-NH2
# B20: peptide of SEQ ID NO: 27 (peptide)
# peptide: [dH]PQGTFTSDK([γGlu-Palmitoyl])SKYLDERAAQDFVQWLLEGGPSSGAPPPS-NH2
# B21: peptide of SEQ ID NO: 25 (peptide)
# peptide: [β2His]AQGTFTSDK([γGlu-Palmitoyl])SKYLDERAAQDFVQWLLEGGPSSGAPPPS-NH2
# B22: peptide of SEQ ID NO: 10 (peptide)
# peptide: H[Aib]QGTFTSDK([γGlu-Palmitoyl])SKYLDERAAQDFVQWLLDGGPSSGAPPPS-NH2
# B23: peptide of SEQ ID NO: 34 (peptide)
# peptide: Ac-QGQGTFTSDK([γGlu-Palmitoyl])SKYLDERAAQDFVQWLLEGGPSSGAPPPS-NH2
# B24: peptide of SEQ ID NO: 13 (peptide)
# peptide: Ac-[dH]AQGTFTSDK([γGlu-Palmitoyl])SKYLDERAAQDFVQWLLEGGPSSGAPPPS-NH2
# Target: T1, glucagon receptor (UniProt P47871 26-477, limits assumed)
# Experiment: cell-based or functional assay
# T1 sequence (P47871 26-477 limits assumed): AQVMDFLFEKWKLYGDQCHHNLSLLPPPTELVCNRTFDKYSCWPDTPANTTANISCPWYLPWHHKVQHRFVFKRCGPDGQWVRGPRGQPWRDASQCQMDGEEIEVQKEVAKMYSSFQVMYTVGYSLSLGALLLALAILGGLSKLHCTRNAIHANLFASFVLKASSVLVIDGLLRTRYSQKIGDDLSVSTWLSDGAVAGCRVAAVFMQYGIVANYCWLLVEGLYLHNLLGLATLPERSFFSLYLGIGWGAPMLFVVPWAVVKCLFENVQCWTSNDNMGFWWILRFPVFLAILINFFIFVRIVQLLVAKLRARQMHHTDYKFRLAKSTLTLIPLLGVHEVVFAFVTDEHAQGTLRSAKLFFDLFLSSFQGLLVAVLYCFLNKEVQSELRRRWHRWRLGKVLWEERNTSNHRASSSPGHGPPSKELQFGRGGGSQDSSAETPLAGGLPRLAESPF
row,Binder,"EC50 at Glucagon Receptor (cAMP luciferase reporter, HEK293) [nM]"
1,B1,3.73

# Target: T2, GIP receptor (UniProt P48546 22-466, limits assumed)
# T2 sequence (looked up): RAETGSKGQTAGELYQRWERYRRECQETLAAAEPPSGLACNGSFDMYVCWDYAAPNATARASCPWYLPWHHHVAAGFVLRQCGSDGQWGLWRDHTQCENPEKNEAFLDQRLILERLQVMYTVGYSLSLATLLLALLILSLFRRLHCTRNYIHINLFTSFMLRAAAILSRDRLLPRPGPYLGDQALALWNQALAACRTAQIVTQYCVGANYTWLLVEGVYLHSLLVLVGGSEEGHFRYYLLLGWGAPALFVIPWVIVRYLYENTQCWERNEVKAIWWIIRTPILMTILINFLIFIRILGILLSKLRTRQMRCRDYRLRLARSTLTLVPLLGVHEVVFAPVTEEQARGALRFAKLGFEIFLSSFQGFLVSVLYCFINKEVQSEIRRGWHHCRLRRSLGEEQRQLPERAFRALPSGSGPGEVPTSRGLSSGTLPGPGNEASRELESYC
# Experiment: cell-based or functional assay
row,Binder,"EC50 at GIP Receptor (cAMP luciferase reporter, HEK293) [nM]"
1,B1,0.003
2,B2,0.037
3,B3,0.069

# Target: T1, glucagon receptor
# Experiment: cell-based or functional assay
# Remark: another data set of the same source
row,Binder,"EC50 at Glucagon Receptor (cAMP luciferase reporter, HEK293) [nM]"
1,B4,0.05
2,B5,0.095
3,B6,0.016
4,B7,0.635
5,B8,0.015
6,B9,0.022
7,B10,0.009
8,B11,0.022
9,B12,0.007
10,B13,0.005
11,B14,0.017
12,B15,0.008
13,B16,0.121
14,B17,0.038
15,B18,0.006
16,B19,0.01
17,B20,0.034
18,B21,0.024
19,B22,0.005
20,B23,0.163
21,B24,0.002

# Target: T2, GIP receptor
# Experiment: cell-based or functional assay
# Remark: another data set of the same source
row,Binder,"EC50 at GIP Receptor (cAMP luciferase reporter, HEK293) [nM]"
1,B4,0.008
2,B5,0.071
3,B6,0.002
4,B7,0.183
5,B8,0.043
6,B9,0.081
7,B10,0.003
8,B11,0.226
9,B12,0.002
10,B13,0.005
11,B14,0.041
12,B15,0.011
13,B16,0.43
14,B17,0.095
15,B18,0.04
16,B19,0.01
17,B20,0.08
18,B21,0.064
19,B22,0.003
20,B23,0.436
21,B24,0.004

# Target: GLP-1 receptor (UniProt P43220 24-463, limits assumed)
# Experiment: cell-based or functional assay
row,Binder,"EC50 at GLP-1 Receptor (cAMP luciferase reporter, HEK293) [nM]"
1,B4,0.004
2,B5,0.002
3,B6,0.002
4,B7,0.002
5,B8,0.003
6,B9,0.002
7,B10,0.006
8,B11,0.003
9,B12,0.003
10,B13,0.022
11,B14,0.003
12,B15,0.005
13,B16,0.005
14,B17,0.007
15,B18,0.026
16,B19,0.002
17,B20,0.003
18,B21,0.003
19,B22,0.005
20,B23,0.611
21,B24,0.004

# Reference: patent US20180105569A1 (INDIANA UNIVERSITY RESEARCH AND TECHNOLOGY, published 2018)
